Experiments:
[1] = biological target: T1, HLA-A2.1 heavy chain with I125-labeled β2-microglobulin (heterotrimer dissociation assay) (human, I^125-labeled); assay: dissociation of 125I-β2-microglobulin from the HLA-A2.1/peptide/β2m heterotrimer, HPLC gel filtration
T1 construct: The complex is isolated by HPLC gel filtration; T1/2 is the half-time of β2m dissociation from the complex that holds the tested peptide; also called heterotrimer complex of the HLA-A2.1 heavy chain, peptide, and β2-microglobulin

[2] = biological target: T2, HLA-A2.1 (HLA-A*0201) with β2-microglobulin on the surface of T2 cells (human); assay: T2 cell HLA-A2.1 stabilisation, flow cytometry (FIG. 34)
T2 construct: also called surface HLA-A2.1 on T2

[3] = biological target: T1, HLA-A2.1 heavy chain with I125-labeled …; assay: 125I-β2-microglobulin dissociation from the heterotrimer, gel filtration
[4] = biological target: T2, HLA-A2.1 (HLA-A*0201) with …; assay: peptide-binding assay, HLA-A2 stabilisation on T2 cells; reference peptide PR1

Row | Binder | T1/2 [1] [h] | binding result [2] | binding result [3] | FI ratio to PR1 (stabilisation of HLA-A2 on T2 cells) [4] [ratio]
1 | RLFPDFFTRV (Synthetic peptide) [PR2 peptide (proteinase 3 derived)] | 2.33 | – | – | –
2 | VLQELNVTV (Synthetic peptide, at least 95% pure) [PR1 peptide (proteinase 3 aa 169-177)] | 24.3 | – | – | –
3 | KLLLALAGL [MY2 peptide (myeloperoxidase derived)] | – | binds | binds | –
4 | RLFEQVMRI [MY4 peptide (myeloperoxidase derived)] | – | binds | binds | –
5 | LIQPFMFRL [MY5 peptide (myeloperoxidase derived)] | – | binds | binds | –
6 | LLSYFKQPV [MY3 peptide (myeloperoxidase derived)] | – | binds | binds | –
7 | ILLDWLMEV (also called cyclin E1 peptide) [CCNE1144-152 (cyclin E1 derived nonameric peptide)] | – | – | – | 1.01
8 | ILLDWLLEV (also called cyclin E2 peptide) [CCNE2144-152 (cyclin E2 derived nonameric peptide)] | – | – | – | 1.19
9 | SLWRRPFNV [MY1 peptide (myeloperoxidase derived)] | – | binds | binds | –
